From article PMC4678854
Substitutions are numbered along the chain they refer to.

Columns and labels:
Test in all cases: EMSA
TnsE wild-type = target: T1, TnsE wild-type (Escherichia coli (transposon Tn7), UniProt P05845 1-538)
T1 sequence: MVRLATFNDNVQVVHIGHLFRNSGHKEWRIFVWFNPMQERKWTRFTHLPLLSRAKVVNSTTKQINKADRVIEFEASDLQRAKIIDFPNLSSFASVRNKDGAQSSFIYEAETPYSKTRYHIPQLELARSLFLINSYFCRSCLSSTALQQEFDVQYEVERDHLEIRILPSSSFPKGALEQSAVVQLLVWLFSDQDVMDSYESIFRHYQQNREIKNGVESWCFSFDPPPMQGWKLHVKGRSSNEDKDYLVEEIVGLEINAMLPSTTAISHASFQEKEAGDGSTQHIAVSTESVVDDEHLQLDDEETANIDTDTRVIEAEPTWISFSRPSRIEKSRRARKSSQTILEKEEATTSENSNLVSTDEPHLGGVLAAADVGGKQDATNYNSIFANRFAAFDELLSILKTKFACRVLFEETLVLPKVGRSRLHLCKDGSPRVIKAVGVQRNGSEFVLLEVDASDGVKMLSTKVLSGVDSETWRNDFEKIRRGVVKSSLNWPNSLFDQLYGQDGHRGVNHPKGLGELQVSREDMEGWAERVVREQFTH

TnsE E522K = target: T2, TnsE E522K (Escherichia coli (transposon Tn7), UniProt P05845 1-538, E522K)
T2 sequence: T1 sequence with E522K

TnsE G483R = target: T3, TnsE G483R (Escherichia coli (transposon Tn7), UniProt P05845 1-538, G483R)
T3 sequence: T1 sequence with G483R

TnsE A453V = target: T4, TnsE A453V (Escherichia coli (transposon Tn7), UniProt P05845 1-538, A453V)
T4 sequence: T1 sequence with A453V

TnsE D523N = target: T5, TnsE D523N (Escherichia coli (transposon Tn7), UniProt P05845 1-538, D523N)
T5 sequence: T1 sequence with D523N

TnsE G515R = target: T6, TnsE G515R (Escherichia coli (transposon Tn7), UniProt P05845 1-538, G515R)
T6 sequence: T1 sequence with G515R

TnsE E516K = target: T7, TnsE E516K (Escherichia coli (transposon Tn7), UniProt P05845 1-538, E516K)
T7 sequence: T1 sequence with E516K

TnsE E522K+D523N = target: T8, TnsE E522K+D523N (Escherichia coli (transposon Tn7), UniProt P05845 1-538, E522K;D523N)
T8 sequence: T1 sequence with E522K, D523N

Measured: binding result

B1: 3' recessed-end DNA substrate (mixed)
DNA 1: CCATTAGCAAGGCCGGAAACGTCACCAATGCAACGATCAGCCAACTAAACTAGGACATCTTTGCC
DNA 2: GGCAAAGATGTCCTAGTTTAGTTGGCTGAT
binds: all assays above
